Data from patent publication US20260001928A1 (CORTERIA PHARMACEUTICALS, priority 2022, published 2026).
*1 amine or outer side, *2 acyl side, *3 side chain or, on linkers, in order; H or OH if unused. Where no end group is shown, it is not given here. Side-chain parts run from the residue outwards. [ ]: non-standard residue; d: D form. The star is where a group is joined. C20 diacid = O=C(O)CCCCCCCCCCCCCCCCCCC(=O)*; C18 diacid = O=C(O)CCCCCCCCCCCCCCCCC(=O)*; γGlu = O=C(O)[C@H](CCC(=O)[*:2])N[*:1]; C14 diacid = O=C(O)CCCCCCCCCCCCC(=O)*; NMeI = CC[C@H](C)[C@H](NC)C(=O)O; Pentanoyl = CCCCC(=O)*; Aib = CC(C)(N)C(=O)O

B1: peptide of SEQ ID NO: 212 (peptide)
peptide: Ac-IVLSLD[dV]PIKLK([γGlu-C20 diacid])KILLEQEKQKAQREQAETN[Aib]QILAQV-NH2
SMILES: CC[C@H](C)[C@H](NC(C)=O)C(=O)N[C@H](C(=O)N[C@@H](CC(C)C)C(=O)N[C@@H](CO)C(=O)N[C@@H](CC(C)C)C(=O)N[C@@H](CC(=O)O)C(=O)N[C@@H](C(=O)N1CCC[C@H]1C(=O)N[C@H](C(=O)N[C@@H](CCCCN)C(=O)N[C@@H](CC(C)C)C(=O)N[C@@H](CCCCNC(=O)CC[C@H](NC(=O)CCCCCCCCCCCCCCCCCCC(=O)O)C(=O)O)C(=O)N[C@@H](CCCCN)C(=O)N[C@H](C(=O)N[C@@H](CC(C)C)C(=O)N[C@@H](CC(C)C)C(=O)N[C@@H](CCC(=O)O)C(=O)N[C@@H](CCC(N)=O)C(=O)N[C@@H](CCC(=O)O)C(=O)N[C@@H](CCCCN)C(=O)N[C@@H](CCC(N)=O)C(=O)N[C@@H](CCCCN)C(=O)N[C@@H](C)C(=O)N[C@@H](CCC(N)=O)C(=O)N[C@@H](CCCNC(=N)N)C(=O)N[C@@H](CCC(=O)O)C(=O)N[C@@H](CCC(N)=O)C(=O)N[C@@H](C)C(=O)N[C@@H](CCC(=O)O)C(=O)N[C@H](C(=O)N[C@@H](CC(N)=O)C(=O)NC(C)(C)C(=O)N[C@@H](CCC(N)=O)C(=O)N[C@H](C(=O)N[C@@H](CC(C)C)C(=O)N[C@@H](C)C(=O)N[C@@H](CCC(N)=O)C(=O)N[C@H](C(N)=O)C(C)C)[C@@H](C)CC)[C@@H](C)O)[C@@H](C)CC)[C@@H](C)CC)C(C)C)C(C)C
B2: peptide of SEQ ID NO: 145 (peptide)
peptide: [NMeI]VLSLD[dV]PIKLK([γGlu-C18 diacid])KILLEQEKQK[Aib]QREQAETN[Aib]QILAQV-NH2
modifications: N-terminus assumed
SMILES: CC[C@H](C)[C@H](NC)C(=O)N[C@H](C(=O)N[C@@H](CC(C)C)C(=O)N[C@@H](CO)C(=O)N[C@@H](CC(C)C)C(=O)N[C@@H](CC(=O)O)C(=O)N[C@@H](C(=O)N1CCC[C@H]1C(=O)N[C@H](C(=O)N[C@@H](CCCCN)C(=O)N[C@@H](CC(C)C)C(=O)N[C@@H](CCCCNC(=O)CC[C@H](NC(=O)CCCCCCCCCCCCCCCCC(=O)O)C(=O)O)C(=O)N[C@@H](CCCCN)C(=O)N[C@H](C(=O)N[C@@H](CC(C)C)C(=O)N[C@@H](CC(C)C)C(=O)N[C@@H](CCC(=O)O)C(=O)N[C@@H](CCC(N)=O)C(=O)N[C@@H](CCC(=O)O)C(=O)N[C@@H](CCCCN)C(=O)N[C@@H](CCC(N)=O)C(=O)N[C@@H](CCCCN)C(=O)NC(C)(C)C(=O)N[C@@H](CCC(N)=O)C(=O)N[C@@H](CCCNC(=N)N)C(=O)N[C@@H](CCC(=O)O)C(=O)N[C@@H](CCC(N)=O)C(=O)N[C@@H](C)C(=O)N[C@@H](CCC(=O)O)C(=O)N[C@H](C(=O)N[C@@H](CC(N)=O)C(=O)NC(C)(C)C(=O)N[C@@H](CCC(N)=O)C(=O)N[C@H](C(=O)N[C@@H](CC(C)C)C(=O)N[C@@H](C)C(=O)N[C@@H](CCC(N)=O)C(=O)N[C@H](C(N)=O)C(C)C)[C@@H](C)CC)[C@@H](C)O)[C@@H](C)CC)[C@@H](C)CC)C(C)C)C(C)C
B3: peptide of SEQ ID NO: 189 (peptide)
peptide: Ac-IVLSLD[dV]PIKLK([γGlu-C18 diacid])KILLEQEKQKAQREQAETN[Aib]QILAQV-NH2
SMILES: CC[C@H](C)[C@H](NC(C)=O)C(=O)N[C@H](C(=O)N[C@@H](CC(C)C)C(=O)N[C@@H](CO)C(=O)N[C@@H](CC(C)C)C(=O)N[C@@H](CC(=O)O)C(=O)N[C@@H](C(=O)N1CCC[C@H]1C(=O)N[C@H](C(=O)N[C@@H](CCCCN)C(=O)N[C@@H](CC(C)C)C(=O)N[C@@H](CCCCNC(=O)CC[C@H](NC(=O)CCCCCCCCCCCCCCCCC(=O)O)C(=O)O)C(=O)N[C@@H](CCCCN)C(=O)N[C@H](C(=O)N[C@@H](CC(C)C)C(=O)N[C@@H](CC(C)C)C(=O)N[C@@H](CCC(=O)O)C(=O)N[C@@H](CCC(N)=O)C(=O)N[C@@H](CCC(=O)O)C(=O)N[C@@H](CCCCN)C(=O)N[C@@H](CCC(N)=O)C(=O)N[C@@H](CCCCN)C(=O)N[C@@H](C)C(=O)N[C@@H](CCC(N)=O)C(=O)N[C@@H](CCCNC(=N)N)C(=O)N[C@@H](CCC(=O)O)C(=O)N[C@@H](CCC(N)=O)C(=O)N[C@@H](C)C(=O)N[C@@H](CCC(=O)O)C(=O)N[C@H](C(=O)N[C@@H](CC(N)=O)C(=O)NC(C)(C)C(=O)N[C@@H](CCC(N)=O)C(=O)N[C@H](C(=O)N[C@@H](CC(C)C)C(=O)N[C@@H](C)C(=O)N[C@@H](CCC(N)=O)C(=O)N[C@H](C(N)=O)C(C)C)[C@@H](C)CC)[C@@H](C)O)[C@@H](C)CC)[C@@H](C)CC)C(C)C)C(C)C
B4: peptide of SEQ ID NO: 206 (peptide)
peptide: Ac-IVLSLD[dV]PIKLK([γGlu-C20 diacid])KILLEQEKQKKQREQAETN[Aib]QILAQV-NH2
SMILES: CC[C@H](C)[C@H](NC(C)=O)C(=O)N[C@H](C(=O)N[C@@H](CC(C)C)C(=O)N[C@@H](CO)C(=O)N[C@@H](CC(C)C)C(=O)N[C@@H](CC(=O)O)C(=O)N[C@@H](C(=O)N1CCC[C@H]1C(=O)N[C@H](C(=O)N[C@@H](CCCCN)C(=O)N[C@@H](CC(C)C)C(=O)N[C@@H](CCCCNC(=O)CC[C@H](NC(=O)CCCCCCCCCCCCCCCCCCC(=O)O)C(=O)O)C(=O)N[C@@H](CCCCN)C(=O)N[C@H](C(=O)N[C@@H](CC(C)C)C(=O)N[C@@H](CC(C)C)C(=O)N[C@@H](CCC(=O)O)C(=O)N[C@@H](CCC(N)=O)C(=O)N[C@@H](CCC(=O)O)C(=O)N[C@@H](CCCCN)C(=O)N[C@@H](CCC(N)=O)C(=O)N[C@@H](CCCCN)C(=O)N[C@@H](CCCCN)C(=O)N[C@@H](CCC(N)=O)C(=O)N[C@@H](CCCNC(=N)N)C(=O)N[C@@H](CCC(=O)O)C(=O)N[C@@H](CCC(N)=O)C(=O)N[C@@H](C)C(=O)N[C@@H](CCC(=O)O)C(=O)N[C@H](C(=O)N[C@@H](CC(N)=O)C(=O)NC(C)(C)C(=O)N[C@@H](CCC(N)=O)C(=O)N[C@H](C(=O)N[C@@H](CC(C)C)C(=O)N[C@@H](C)C(=O)N[C@@H](CCC(N)=O)C(=O)N[C@H](C(N)=O)C(C)C)[C@@H](C)CC)[C@@H](C)O)[C@@H](C)CC)[C@@H](C)CC)C(C)C)C(C)C
B5: peptide of SEQ ID NO: 217 (peptide)
peptide: [NMeI]VLSLD[dV]PIKLK([γGlu-C20 diacid])KILLEQEKQKAQREQAETN[Aib]QILAQV-NH2
modifications: N-terminus assumed
SMILES: CC[C@H](C)[C@H](NC)C(=O)N[C@H](C(=O)N[C@@H](CC(C)C)C(=O)N[C@@H](CO)C(=O)N[C@@H](CC(C)C)C(=O)N[C@@H](CC(=O)O)C(=O)N[C@@H](C(=O)N1CCC[C@H]1C(=O)N[C@H](C(=O)N[C@@H](CCCCN)C(=O)N[C@@H](CC(C)C)C(=O)N[C@@H](CCCCNC(=O)CC[C@H](NC(=O)CCCCCCCCCCCCCCCCCCC(=O)O)C(=O)O)C(=O)N[C@@H](CCCCN)C(=O)N[C@H](C(=O)N[C@@H](CC(C)C)C(=O)N[C@@H](CC(C)C)C(=O)N[C@@H](CCC(=O)O)C(=O)N[C@@H](CCC(N)=O)C(=O)N[C@@H](CCC(=O)O)C(=O)N[C@@H](CCCCN)C(=O)N[C@@H](CCC(N)=O)C(=O)N[C@@H](CCCCN)C(=O)N[C@@H](C)C(=O)N[C@@H](CCC(N)=O)C(=O)N[C@@H](CCCNC(=N)N)C(=O)N[C@@H](CCC(=O)O)C(=O)N[C@@H](CCC(N)=O)C(=O)N[C@@H](C)C(=O)N[C@@H](CCC(=O)O)C(=O)N[C@H](C(=O)N[C@@H](CC(N)=O)C(=O)NC(C)(C)C(=O)N[C@@H](CCC(N)=O)C(=O)N[C@H](C(=O)N[C@@H](CC(C)C)C(=O)N[C@@H](C)C(=O)N[C@@H](CCC(N)=O)C(=O)N[C@H](C(N)=O)C(C)C)[C@@H](C)CC)[C@@H](C)O)[C@@H](C)CC)[C@@H](C)CC)C(C)C)C(C)C
B6: peptide of SEQ ID NO: 215 (peptide)
peptide: [NMeI]VLSLD[dV]PIKLK([γGlu-C20 diacid])KILLEQEKQK[Aib]QREQAETN[Aib]QILAQV-NH2
modifications: N-terminus assumed
SMILES: CC[C@H](C)[C@H](NC)C(=O)N[C@H](C(=O)N[C@@H](CC(C)C)C(=O)N[C@@H](CO)C(=O)N[C@@H](CC(C)C)C(=O)N[C@@H](CC(=O)O)C(=O)N[C@@H](C(=O)N1CCC[C@H]1C(=O)N[C@H](C(=O)N[C@@H](CCCCN)C(=O)N[C@@H](CC(C)C)C(=O)N[C@@H](CCCCNC(=O)CC[C@H](NC(=O)CCCCCCCCCCCCCCCCCCC(=O)O)C(=O)O)C(=O)N[C@@H](CCCCN)C(=O)N[C@H](C(=O)N[C@@H](CC(C)C)C(=O)N[C@@H](CC(C)C)C(=O)N[C@@H](CCC(=O)O)C(=O)N[C@@H](CCC(N)=O)C(=O)N[C@@H](CCC(=O)O)C(=O)N[C@@H](CCCCN)C(=O)N[C@@H](CCC(N)=O)C(=O)N[C@@H](CCCCN)C(=O)NC(C)(C)C(=O)N[C@@H](CCC(N)=O)C(=O)N[C@@H](CCCNC(=N)N)C(=O)N[C@@H](CCC(=O)O)C(=O)N[C@@H](CCC(N)=O)C(=O)N[C@@H](C)C(=O)N[C@@H](CCC(=O)O)C(=O)N[C@H](C(=O)N[C@@H](CC(N)=O)C(=O)NC(C)(C)C(=O)N[C@@H](CCC(N)=O)C(=O)N[C@H](C(=O)N[C@@H](CC(C)C)C(=O)N[C@@H](C)C(=O)N[C@@H](CCC(N)=O)C(=O)N[C@H](C(N)=O)C(C)C)[C@@H](C)CC)[C@@H](C)O)[C@@H](C)CC)[C@@H](C)CC)C(C)C)C(C)C

Target: Rat CRF2 a (corticotropin-releasing factor receptor 2), on the A7R5 rat aortic smooth muscle cell line (rat, UniProt P47866 20-411)
Test: cell-based or functional assay

Rat CRF2 a (corticotropin-releasing factor receptor 2), on the A7R5 rat aortic smooth muscle cell line, sequence (P47866 20-411): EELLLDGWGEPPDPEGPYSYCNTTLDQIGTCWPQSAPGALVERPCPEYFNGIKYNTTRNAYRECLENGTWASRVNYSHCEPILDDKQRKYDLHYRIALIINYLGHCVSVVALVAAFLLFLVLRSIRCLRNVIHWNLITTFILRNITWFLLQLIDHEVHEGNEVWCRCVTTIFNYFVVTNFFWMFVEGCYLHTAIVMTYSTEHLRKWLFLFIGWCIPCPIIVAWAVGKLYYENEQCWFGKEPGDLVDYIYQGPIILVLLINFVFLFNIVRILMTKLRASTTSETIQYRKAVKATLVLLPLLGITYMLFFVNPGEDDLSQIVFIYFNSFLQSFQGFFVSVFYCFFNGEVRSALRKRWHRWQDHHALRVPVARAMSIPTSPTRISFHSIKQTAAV

Row | Binder | EC50 [nM] 0% HSA (cAMP, A7R5 rat aortic smooth muscle cells) [nM]
1 | B1 | 0.08
2 | B2 | 0.05
3 | B3 | 0.15
4 | B4 | 0.06
5 | B5 | 0.06
6 | [NMeI]VLSLD[dV]PIKLK([γGlu-C14 diacid])KILLEQEKQKKQREQAETN[Aib]QILAQV-NH2 [peptide of SEQ ID NO: 87] | 0.32
7 | B6 | 0.04
8 | Pentanoyl-VLSLD[dV]PIKLK([γGlu-C14 diacid])KILLEQEKQKKQREQAETN[Aib]QILAQV-NH2 [peptide of SEQ ID NO: 86] | 0.68
